Reference: the supplement of paper PMC9112550, “Optimization of the antimicrobial peptide Bac7 by deep mutational scanning” (BMC Biology, 2022)

Test system: Escherichia coli TOP10
Assay: shrunken log2 fold change of peptide-encoding DNA abundance (4.5 h post-induction vs induction); higher = less antimicrobial activity (less host growth inhibition)
Details: time post-induction: 4.5 h; library: site-saturation at positions 5, 18, 19, 20
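Further: peptides expressed intracellularly from a pBAD plasmid library in pooled LB shake-flask culture, induced with 0.3% L-arabinose, DNA abundance read by NGS, three biological replicates, DESeq2 with apeglm shrinkage.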

Row | Sequence | shrunken log2 fold change
1 | RRIRYRPPRLPRPRPRPRIGPRP | -0.471
2 | RRIRLRPPRLPRPRPRPMQHPRP | 0.256
3 | RRIRTRPPRLPRPRPRPKILPRP | -0.0614
4 | RRIRWRPPRLPRPRPRPPCHPRP | 0.0912
5 | RRIRKRPPRLPRPRPRPFNHPRP | -0.993
6 | RRIRARPPRLPRPRPRPFGIPRP | 0.0411
7 | RRIRKRPPRLPRPRPRPDEMPRP | 0.188
8 | RRIRNRPPRLPRPRPRPESPPRP | 0.0142
9 | RRIRQRPPRLPRPRPRPLDPPRP | -0.408
10 | RRIRKRPPRLPRPRPRPLFMPRP | -0.0207
11 | RRIRSRPPRLPRPRPRPWQVPRP | 0.00514
12 | RRIRHRPPRLPRPRPRPDKRPRP | -0.0145
13 | RRIRNRPPRLPRPRPRPFGNPRP | 0.0247
14 | RRIRHRPPRLPRPRPRPIRYPRP | 0.0301
15 | RRIRQRPPRLPRPRPRPHLCPRP | 0.0292
16 | RRIRKRPPRLPRPRPRPIMMPRP | -0.0529
17 | RRIRSRPPRLPRPRPRPSIRPRP | -0.41
18 | RRIRGRPPRLPRPRPRPYTEPRP | -0.0586
19 | RRIRLRPPRLPRPRPRPIHKPRP | 0.195
20 | RRIRCRPPRLPRPRPRPVLPPRP | 2
21 | RRIRYRPPRLPRPRPRPLVNPRP | -1.09
22 | RRIRIRPPRLPRPRPRPFKDPRP | -0.0121
23 | RRIRKRPPRLPRPRPRPNTKPRP | -0.391
24 | RRIRIRPPRLPRPRPRPVYTPRP | -0.346
25 | RRIRGRPPRLPRPRPRPVETPRP | 0.689

Row | Sequence | shrunken log2 fold change
26 | RRIRFRPPRLPRPRPRPANRPRP | -0.0406
27 | RRIRFRPPRLPRPRPRPSKWPRP | -0.273
28 | RRIRIRPPRLPRPRPRPSKAPRP | -0.176
29 | RRIRRRPPRLPRPRPRPYAIPRP | -0.252
30 | RRIRERPPRLPRPRPRPNWAPRP | 0.0312
31 | RRIRGRPPRLPRPRPRPRGGPRP | 1.05
32 | RRIRVRPPRLPRPRPRPFFWPRP | 0.395
33 | RRIRDRPPRLPRPRPRPCEFPRP | 0.013
34 | RRIRARPPRLPRPRPRPPTNPRP | 0.678
35 | RRIRVRPPRLPRPRPRPGKFPRP | -0.17
36 | RRIRFRPPRLPRPRPRPDWMPRP | -0.0628
37 | RRIRHRPPRLPRPRPRPIGSPRP | -0.0183
38 | RRIRRRPPRLPRPRPRPPHMPRP | 1.11
39 | RRIRIRPPRLPRPRPRPKLLPRP | 0.0419
40 | RRIRFRPPRLPRPRPRPWAKPRP | -0.0227
41 | RRIRNRPPRLPRPRPRPCVMPRP | 0.0192
42 | RRIRVRPPRLPRPRPRPVTYPRP | -0.288
43 | RRIRNRPPRLPRPRPRPICEPRP | 0.0602
44 | RRIRWRPPRLPRPRPRPDEDPRP | 0.299
45 | RRIRNRPPRLPRPRPRPQFFPRP | -0.0257
46 | RRIRHRPPRLPRPRPRPKCQPRP | -0.0621
47 | RRIRKRPPRLPRPRPRPIWCPRP | -0.0231
48 | RRIRMRPPRLPRPRPRPNIHPRP | -0.144
49 | RRIRSRPPRLPRPRPRPIAIPRP | -0.0732
50 | RRIRSRPPRLPRPRPRPTCGPRP | 0.468

Row | Sequence | shrunken log2 fold change
51 | RRIRDRPPRLPRPRPRPDETPRP | 0.0461
52 | RRIRGRPPRLPRPRPRPTAVPRP | 2.41
53 | RRIRVRPPRLPRPRPRPYIFPRP | -0.864
54 | RRIRWRPPRLPRPRPRPKQRPRP | 0.473
55 | RRIRMRPPRLPRPRPRPGQAPRP | 0.34
56 | RRIRKRPPRLPRPRPRPTGYPRP | 0.214
57 | RRIRLRPPRLPRPRPRPPWDPRP | 0.344
58 | RRIRLRPPRLPRPRPRPDKHPRP | -0.971
59 | RRIRGRPPRLPRPRPRPHTWPRP | -0.0293
60 | RRIRARPPRLPRPRPRPHWKPRP | -0.00664
61 | RRIRDRPPRLPRPRPRPQGLPRP | 0.0467
62 | RRIRQRPPRLPRPRPRPMKTPRP | 0.0802
63 | RRIRTRPPRLPRPRPRPMDYPRP | -0.00965
64 | RRIRVRPPRLPRPRPRPPWEPRP | 0.252
65 | RRIRVRPPRLPRPRPRPMGPPRP | 0.24
66 | RRIRYRPPRLPRPRPRPLHFPRP | -0.0434
67 | RRIRGRPPRLPRPRPRPVTTPRP | 1.21
68 | RRIRYRPPRLPRPRPRPNIMPRP | -1.42
69 | RRIRERPPRLPRPRPRPELGPRP | 0.0169
70 | RRIRRRPPRLPRPRPRPLIPPRP | -0.0124
71 | RRIRCRPPRLPRPRPRPTFTPRP | -0.416
72 | RRIRKRPPRLPRPRPRPKPWPRP | 0.526
73 | RRIRKRPPRLPRPRPRPKLEPRP | -0.0306
74 | RRIRNRPPRLPRPRPRPAENPRP | -0.0634
75 | RRIRCRPPRLPRPRPRPRNWPRP | 0.366

Row | Sequence | shrunken log2 fold change
76 | RRIRMRPPRLPRPRPRPEDIPRP | -0.0245
77 | RRIRVRPPRLPRPRPRPACAPRP | 0.322
78 | RRIRWRPPRLPRPRPRPWNKPRP | 0.087
79 | RRIRNRPPRLPRPRPRPYEMPRP | -0.0417
80 | RRIRARPPRLPRPRPRPYLSPRP | -0.451
81 | RRIRGRPPRLPRPRPRPRHTPRP | 0.7
82 | RRIRPRPPRLPRPRPRPEDFPRP | -0.0193
83 | RRIRYRPPRLPRPRPRPHYVPRP | -0.208
84 | RRIRERPPRLPRPRPRPWAKPRP | -0.015
85 | RRIRTRPPRLPRPRPRPNQPPRP | 0.0619
86 | RRIRYRPPRLPRPRPRPWPSPRP | -0.00149
87 | RRIRTRPPRLPRPRPRPARPPRP | 0.883
88 | RRIRLRPPRLPRPRPRPWMAPRP | -0.346
89 | RRIRNRPPRLPRPRPRPFQKPRP | -0.185
90 | RRIRERPPRLPRPRPRPWAQPRP | -0.0813
91 | RRIRDRPPRLPRPRPRPFVVPRP | -0.266
92 | RRIRMRPPRLPRPRPRPQVLPRP | 0.25
93 | RRIRWRPPRLPRPRPRPIRAPRP | -0.0266
94 | RRIRWRPPRLPRPRPRPINVPRP | -0.0356
95 | RRIRVRPPRLPRPRPRPHNCPRP | -0.0364
96 | RRIRQRPPRLPRPRPRPKKHPRP | -0.236
97 | RRIRERPPRLPRPRPRPVGPPRP | -0.0231
98 | RRIRGRPPRLPRPRPRPYGHPRP | 0.323
99 | RRIRRRPPRLPRPRPRPYGYPRP | 0.0179
100 | RRIRPRPPRLPRPRPRPQDPPRP | -0.135

Row | Sequence | shrunken log2 fold change
101 | RRIRCRPPRLPRPRPRPHHIPRP | -0.88
102 | RRIRQRPPRLPRPRPRPFPEPRP | -0.0157
103 | RRIRWRPPRLPRPRPRPCCYPRP | -0.295
104 | RRIRSRPPRLPRPRPRPFTQPRP | -0.403
105 | RRIRKRPPRLPRPRPRPPYIPRP | -0.69
106 | RRIRARPPRLPRPRPRPHFMPRP | 0.787
107 | RRIRNRPPRLPRPRPRPTHEPRP | 0.0695
108 | RRIRQRPPRLPRPRPRPRSLPRP | -0.0177
109 | RRIRARPPRLPRPRPRPSWIPRP | -0.0935
110 | RRIRCRPPRLPRPRPRPFVLPRP | -0.469
111 | RRIRQRPPRLPRPRPRPDPTPRP | 0.119
112 | RRIRVRPPRLPRPRPRPQREPRP | -0.0361
113 | RRIRRRPPRLPRPRPRPTDIPRP | -0.771
114 | RRIRLRPPRLPRPRPRPFHFPRP | -0.58
115 | RRIRSRPPRLPRPRPRPNFFPRP | 0.179
116 | RRIRVRPPRLPRPRPRPTHMPRP | 0.0408
117 | RRIRVRPPRLPRPRPRPREGPRP | 0.307
118 | RRIRIRPPRLPRPRPRPAWAPRP | 0.243
119 | RRIRRRPPRLPRPRPRPGGGPRP | 0.841
120 | RRIRARPPRLPRPRPRPLVPPRP | 0.125
121 | RRIRFRPPRLPRPRPRPYVLPRP | -0.332
122 | RRIRQRPPRLPRPRPRPTVQPRP | 0.226
123 | RRIRWRPPRLPRPRPRPEPYPRP | 0.0876
124 | RRIRFRPPRLPRPRPRPETVPRP | 0.0039
125 | RRIRSRPPRLPRPRPRPFHEPRP | -0.263

Row | Sequence | shrunken log2 fold change
126 | RRIRMRPPRLPRPRPRPCCRPRP | 0.0467
127 | RRIRMRPPRLPRPRPRPKVHPRP | -0.132
128 | RRIRGRPPRLPRPRPRPGDLPRP | 2.41
129 | RRIRVRPPRLPRPRPRPWNHPRP | -0.152
130 | RRIRPRPPRLPRPRPRPQNAPRP | -0.0677
131 | RRIRARPPRLPRPRPRPIWKPRP | -0.0642
132 | RRIRHRPPRLPRPRPRPPVGPRP | 0.183
133 | RRIRNRPPRLPRPRPRPSFWPRP | -0.056
134 | RRIRVRPPRLPRPRPRPHLSPRP | -0.301
135 | RRIRCRPPRLPRPRPRPDRSPRP | 0.208
136 | RRIRGRPPRLPRPRPRPCCLPRP | 0.429
137 | RRIRERPPRLPRPRPRPITLPRP | 0.0653
138 | RRIRARPPRLPRPRPRPSCSPRP | 0.0274
139 | RRIRLRPPRLPRPRPRPAYCPRP | -0.088
140 | RRIRDRPPRLPRPRPRPCYIPRP | 0.0176
141 | RRIRLRPPRLPRPRPRPLTVPRP | 0.127
142 | RRIRKRPPRLPRPRPRPQTHPRP | 0.372
143 | RRIRIRPPRLPRPRPRPNNAPRP | -0.444
144 | RRIRQRPPRLPRPRPRPCVLPRP | -0.298
145 | RRIRIRPPRLPRPRPRPVVDPRP | -0.105
146 | RRIRTRPPRLPRPRPRPDRFPRP | 0.0382
147 | RRIRLRPPRLPRPRPRPYAMPRP | -0.226
148 | RRIRVRPPRLPRPRPRPEHNPRP | -0.244
149 | RRIRMRPPRLPRPRPRPRNRPRP | 0.687
150 | RRIRNRPPRLPRPRPRPSHEPRP | 0.00187
